Reference: paper PMC4831024

Experiments:
[1] = target: Ku (Homo sapiens) (UniProt P12956); details: cited from earlier work
[2] = target: GFP–WRN ΔX (deleted XLF-like motif) (human) (UniProt Q14191); assay: co-IP; GFP-tagged proteins recovered on GFP-TRAP beads from transfected HEK293T extract (25 mM Tris-HCl pH 7.5, 150 mM NaCl, 10% glycerol, 0.5% Triton X-100, 1 mM DTT), 1 h at 4 °C; immunoblot for GFP, Ku80 and DNA–PKcs; Ku quantified by ImageJ relative to wild-type WRN
GFP–WRN ΔX (deleted XLF-like motif) (human), sequence (Q14191 whole entry, stated change not applied): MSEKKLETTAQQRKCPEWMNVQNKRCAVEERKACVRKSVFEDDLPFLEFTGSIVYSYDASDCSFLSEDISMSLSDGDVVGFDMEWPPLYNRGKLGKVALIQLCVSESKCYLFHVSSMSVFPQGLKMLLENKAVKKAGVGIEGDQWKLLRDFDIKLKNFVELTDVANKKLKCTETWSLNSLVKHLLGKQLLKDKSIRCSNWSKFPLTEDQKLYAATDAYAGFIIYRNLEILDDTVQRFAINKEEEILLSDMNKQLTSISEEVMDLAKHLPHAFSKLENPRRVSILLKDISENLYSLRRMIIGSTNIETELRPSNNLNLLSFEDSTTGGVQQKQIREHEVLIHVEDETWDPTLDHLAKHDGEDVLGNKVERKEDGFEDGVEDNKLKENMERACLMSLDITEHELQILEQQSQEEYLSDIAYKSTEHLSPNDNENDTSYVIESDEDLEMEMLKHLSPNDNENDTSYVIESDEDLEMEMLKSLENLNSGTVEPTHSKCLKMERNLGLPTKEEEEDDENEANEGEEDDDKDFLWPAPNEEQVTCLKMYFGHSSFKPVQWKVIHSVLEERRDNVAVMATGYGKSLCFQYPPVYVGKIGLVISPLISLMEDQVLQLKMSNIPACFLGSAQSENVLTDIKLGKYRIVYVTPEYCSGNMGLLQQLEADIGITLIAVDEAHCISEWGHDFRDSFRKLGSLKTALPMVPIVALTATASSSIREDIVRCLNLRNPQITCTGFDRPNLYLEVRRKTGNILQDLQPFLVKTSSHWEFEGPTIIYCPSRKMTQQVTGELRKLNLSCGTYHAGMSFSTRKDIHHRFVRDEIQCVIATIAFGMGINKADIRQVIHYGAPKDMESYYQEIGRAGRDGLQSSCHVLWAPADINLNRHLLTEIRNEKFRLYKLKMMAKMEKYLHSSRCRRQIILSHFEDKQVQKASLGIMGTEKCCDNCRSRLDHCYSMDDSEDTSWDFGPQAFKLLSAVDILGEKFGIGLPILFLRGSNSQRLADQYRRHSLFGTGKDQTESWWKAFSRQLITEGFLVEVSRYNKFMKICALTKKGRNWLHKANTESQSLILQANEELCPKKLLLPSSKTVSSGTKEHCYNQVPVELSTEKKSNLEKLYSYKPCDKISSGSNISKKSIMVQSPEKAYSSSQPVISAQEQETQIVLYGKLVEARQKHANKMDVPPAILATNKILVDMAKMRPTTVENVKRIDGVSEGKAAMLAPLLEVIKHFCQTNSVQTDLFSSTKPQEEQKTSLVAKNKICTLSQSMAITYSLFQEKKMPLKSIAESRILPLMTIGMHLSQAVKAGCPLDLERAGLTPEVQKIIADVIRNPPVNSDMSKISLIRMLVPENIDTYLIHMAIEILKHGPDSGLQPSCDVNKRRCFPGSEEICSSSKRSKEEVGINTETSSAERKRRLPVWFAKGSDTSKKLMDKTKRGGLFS

Ku (Homo sapiens), sequence (P12956 2-609, chain 1 of 2): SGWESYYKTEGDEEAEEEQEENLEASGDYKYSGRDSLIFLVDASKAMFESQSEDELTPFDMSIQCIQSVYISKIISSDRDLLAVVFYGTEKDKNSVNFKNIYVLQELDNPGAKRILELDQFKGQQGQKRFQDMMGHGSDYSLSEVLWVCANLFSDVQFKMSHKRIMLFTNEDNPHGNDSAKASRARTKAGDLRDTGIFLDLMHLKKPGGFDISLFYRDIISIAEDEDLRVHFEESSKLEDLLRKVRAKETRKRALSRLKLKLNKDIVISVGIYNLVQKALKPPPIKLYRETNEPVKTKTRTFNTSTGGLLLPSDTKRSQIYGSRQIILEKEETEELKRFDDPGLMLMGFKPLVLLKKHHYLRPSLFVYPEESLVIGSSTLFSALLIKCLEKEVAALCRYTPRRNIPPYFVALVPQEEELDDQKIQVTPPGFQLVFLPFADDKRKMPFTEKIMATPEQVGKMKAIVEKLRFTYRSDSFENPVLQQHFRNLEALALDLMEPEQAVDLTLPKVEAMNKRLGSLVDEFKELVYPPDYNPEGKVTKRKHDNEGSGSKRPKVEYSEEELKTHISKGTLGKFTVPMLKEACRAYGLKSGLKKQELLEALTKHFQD
Ku (Homo sapiens), sequence (P13010 2-732, chain 2 of 2, further chain): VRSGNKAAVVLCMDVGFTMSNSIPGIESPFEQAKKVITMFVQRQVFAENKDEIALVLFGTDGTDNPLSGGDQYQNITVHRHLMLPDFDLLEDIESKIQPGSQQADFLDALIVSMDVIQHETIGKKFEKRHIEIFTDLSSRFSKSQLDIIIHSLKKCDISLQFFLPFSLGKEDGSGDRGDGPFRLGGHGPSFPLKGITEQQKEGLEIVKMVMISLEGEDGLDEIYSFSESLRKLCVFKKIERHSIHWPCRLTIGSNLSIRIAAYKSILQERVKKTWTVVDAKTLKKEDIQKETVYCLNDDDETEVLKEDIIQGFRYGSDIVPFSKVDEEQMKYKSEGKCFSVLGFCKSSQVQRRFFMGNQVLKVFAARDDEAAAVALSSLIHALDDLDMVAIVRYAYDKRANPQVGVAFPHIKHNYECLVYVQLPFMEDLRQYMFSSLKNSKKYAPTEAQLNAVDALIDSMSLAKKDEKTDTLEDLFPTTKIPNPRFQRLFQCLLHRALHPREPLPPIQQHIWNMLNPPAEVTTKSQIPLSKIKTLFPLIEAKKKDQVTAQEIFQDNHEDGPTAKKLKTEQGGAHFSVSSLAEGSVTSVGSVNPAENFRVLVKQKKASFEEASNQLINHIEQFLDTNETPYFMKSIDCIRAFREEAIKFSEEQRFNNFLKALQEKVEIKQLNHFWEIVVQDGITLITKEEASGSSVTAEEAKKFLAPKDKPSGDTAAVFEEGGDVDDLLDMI
Ku80, endogenous, sequence (P13010 whole entry): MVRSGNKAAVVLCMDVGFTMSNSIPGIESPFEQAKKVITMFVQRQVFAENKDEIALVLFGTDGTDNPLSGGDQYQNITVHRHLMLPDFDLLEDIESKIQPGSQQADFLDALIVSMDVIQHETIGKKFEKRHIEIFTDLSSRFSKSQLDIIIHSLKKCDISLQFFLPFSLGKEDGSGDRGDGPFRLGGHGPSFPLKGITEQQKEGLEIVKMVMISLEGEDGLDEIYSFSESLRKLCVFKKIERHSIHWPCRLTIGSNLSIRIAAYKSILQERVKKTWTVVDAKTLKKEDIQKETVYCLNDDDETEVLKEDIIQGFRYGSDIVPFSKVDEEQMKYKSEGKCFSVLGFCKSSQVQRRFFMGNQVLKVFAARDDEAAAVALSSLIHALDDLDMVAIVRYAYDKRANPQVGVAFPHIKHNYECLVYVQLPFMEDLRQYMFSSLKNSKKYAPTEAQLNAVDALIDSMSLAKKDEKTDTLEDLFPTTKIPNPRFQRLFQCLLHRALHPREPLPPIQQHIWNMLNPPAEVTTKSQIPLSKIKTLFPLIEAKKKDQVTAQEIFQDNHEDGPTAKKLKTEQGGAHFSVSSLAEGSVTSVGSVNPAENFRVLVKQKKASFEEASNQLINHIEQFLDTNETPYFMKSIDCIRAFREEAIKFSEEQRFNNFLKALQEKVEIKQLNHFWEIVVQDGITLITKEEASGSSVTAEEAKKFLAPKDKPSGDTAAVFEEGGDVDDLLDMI

APLF KBM (from UniProt Q8IW19)
Kd [1]: 600 nM

Ku80, endogenous (from UniProt P13010 1-732) (natural protein)
percent reduction of Ku co-precipitated, relative to wild-type GFP-WRN [2]: 30%
